The target of assay [1] is T1, extracellular domain of human CD73 protein, C-terminus polyhistidine-tagged (human, UniProt P21589 27-547).
T1 construct: also the immunogen; also called CD73-ECD; human CD73-ECD
T1 sequence: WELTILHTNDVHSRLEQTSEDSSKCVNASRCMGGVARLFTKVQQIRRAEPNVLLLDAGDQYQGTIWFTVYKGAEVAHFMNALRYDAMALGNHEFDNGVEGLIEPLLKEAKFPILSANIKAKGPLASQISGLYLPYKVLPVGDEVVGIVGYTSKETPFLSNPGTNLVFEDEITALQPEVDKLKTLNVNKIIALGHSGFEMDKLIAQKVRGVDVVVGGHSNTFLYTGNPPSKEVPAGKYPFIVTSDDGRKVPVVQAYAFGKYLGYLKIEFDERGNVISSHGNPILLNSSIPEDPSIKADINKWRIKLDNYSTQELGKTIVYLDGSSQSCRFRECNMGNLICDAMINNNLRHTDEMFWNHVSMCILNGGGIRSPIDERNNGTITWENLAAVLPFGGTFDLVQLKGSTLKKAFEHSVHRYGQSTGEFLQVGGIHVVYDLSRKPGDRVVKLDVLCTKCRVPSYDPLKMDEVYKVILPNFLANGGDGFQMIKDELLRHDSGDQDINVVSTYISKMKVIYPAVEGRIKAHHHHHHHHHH
The assay can be described thus: ELISA, coated CD73-ECD, protein A-HRP. As to the method:
(§1) The CD73 protein extracellular region (CD73-ECD) was diluted to 1 μg/mL using the coating solution, and an ELISA plate was coated at 100 μL/well at 4° C. overnight. Excess antigens were washed away, and the plate was blocked with 1% BSA at room temperature for 2 hours. Then, 5-fold gradient dilutions of each monoclonal antibody were added at 100 μL/well and incubated at room temperature for 1 hour. Unbound antibodies were washed away, and an appropriate concentration of Staphylococcal protein A labeled with horseradish peroxidase was added at 100 μL/well and incubated at room temperature for 0.5 hours. Unbound secondary antibodies were washed away, and TMB color development solution was added to react for about 15 minutes. 1M HCL was added at 50 µL/well to terminate the color development reaction, and then the absorbance was measured at 450 nm and the data was analyzed.

Assay [2] has as its target T2, CD73 on the surface of human cells (human, UniProt P21589 27-549).
T2 construct: whole, on cells; The cell line of each value is named under assay or readout; also called CD73 on the surface of tumor cells; CD73 enzyme on the surface of MDA-MB-231 cells
T2 sequence (looked up): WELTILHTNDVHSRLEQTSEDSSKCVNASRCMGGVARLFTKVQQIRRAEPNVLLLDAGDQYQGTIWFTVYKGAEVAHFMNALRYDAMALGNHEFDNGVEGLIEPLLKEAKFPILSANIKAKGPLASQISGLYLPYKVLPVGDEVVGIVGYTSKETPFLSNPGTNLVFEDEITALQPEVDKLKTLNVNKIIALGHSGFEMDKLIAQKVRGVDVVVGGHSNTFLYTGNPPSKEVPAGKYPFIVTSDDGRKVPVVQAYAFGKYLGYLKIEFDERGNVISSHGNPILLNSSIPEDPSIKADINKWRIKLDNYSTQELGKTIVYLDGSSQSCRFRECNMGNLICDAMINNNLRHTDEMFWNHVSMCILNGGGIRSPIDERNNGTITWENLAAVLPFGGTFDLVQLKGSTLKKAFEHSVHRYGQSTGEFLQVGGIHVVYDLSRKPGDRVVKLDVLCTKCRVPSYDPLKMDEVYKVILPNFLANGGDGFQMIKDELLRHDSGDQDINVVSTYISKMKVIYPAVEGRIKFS
Kind of assay: Flow cytometry on PC9 cells, PE-labelled secondary antibody [panel A]. How it is done: (§2) 100 μL of the test antibodies diluted from 10 μg/mL to 0.016 μg/mL in a 5-fold gradient were used as the primary antibodies, and were mixed with 1×10⁵ tumor cells suspended in 100 μL RPMI-1640 serum-free medium to make a final concentration of 5 μg/mL diluted to 0.008 μg/mL, and then incubated at 4° C. for 1 h. The cells were washed twice with PBS to remove unbound primary antibodies, and then the target cells were incubated with 200 μLPE-labeled secondary antibody at 2 μg/mL at 4° C. for 30 min. The cells were washed twice with PBS to remove unbound secondary antibodies, and finally the cells were resuspended in 200 μL PBS. The binding affinity of the test antibodies to CD73 on the surface of the corresponding cells was measured by flow cytometry.

In assay [3] the target is T2, CD73 on the surface of human cells. Kind of assay: flow cytometry on NCI-H1373 cells. How it is done: as §2
Assay [4] has the same target. The assay can be described thus: flow cytometry on MDA-MB-231 cells. How it is done: as §2
For assay [5] the target is unchanged. The assay can be described thus: flow cytometry on NCI-H1975 cells. As to the method:
as §2

Assay [6] shares this target. The assay can be described thus: flow cytometry on PC9 cells. How it is done: as §2
For assay [7] the target is unchanged. Kind of assay: Flow cytometry on NCI-H1975 cells, PE-labelled secondary antibody [panel B]. As to the method:
as §2

In assay [8] the target is T1, extracellular domain of human CD73 …. Kind of assay: ELISA on coated human CD73-ECD, HRP-protein A detection; fitted upper plateau of the OD450 curve. Set-up: unit not given here. As to the method:
as §1

In assay [9] the target is T2, CD73 on the surface of human cells. Kind of assay: Flow cytometry on NCI-H1299 cells, PE-labelled secondary antibody [panel B]. As to the method: as §2
Assay [10] has the same target. The assay can be described thus: flow cytometry on HCC44 cells. How it is done: as §2
The target is the same in assay [11]. The assay can be described thus: flow cytometry on NCI-H1299 cells.
Assay [12] shares this target. The assay can be described thus: Flow cytometry on MDA-MB-231 cells, PE-labelled secondary antibody [panel A]. As to the method:
as §2

Assay [13] has the same target. Kind of assay: Flow cytometry on HCC44 cells, PE-labelled secondary antibody. As to the method:
as §2

For assay [14] the target is unchanged. Kind of assay: flow cytometry on SW1573 cells. How it is done: as §2

B1: chimeric nanobody 5-E11 (Fc fusion)
VHH: ALQLVESGGGLVQPGGSLRLSCEVSGFTLDYYNIGWFRQAPGKEREGVSCSSNSGGSTYYADSVKGRFTISRDNAKNTVYLQMNSLKPEDTGVYYCAAYRGWHPSLDARVYDYWGQGTEVTVSS
notes: Human-alpaca chimeric antibody (VHH on hIgG1 Fc); Only the VHH is tied to the tested molecule; also called original antibody 5-E11
On to B1, for which the EC50 was 8.72 ng/mL in assay [1]; 0.135 µg/mL in assay [3]; 0.037 µg/mL in [4]; 0.057 µg/mL in [5]; 0.041 µg/mL in [6]; 0.096 µg/mL in [10]. This molecule showed an EC50 in assay [11] of 0.068 µg/mL. Also, the “Max MFI” value in assay [2] came out at 58900 MFI; in assay [7], 79700 MFI; in assay [9], 157000 MFI; in assay [12] it was 64500 MFI; in assay [13], 130000 MFI. Further, in [8], the “Top (%)” value came to 2.28.

B2: chimeric nanobody 4-D04 (Fc fusion)
VHH: QLQLVESGGGLVQPGGSLRLSCAASGFTLDYYNIGWFRQAPGKEREGVSCISSSEGSTYYADSVKGRFTISRDNAKNTVYLQMNSLKPEDTAVYYCAADRYYYCSLHVSQYDYWGQGTLVTVSS
notes: Human-alpaca chimeric antibody
Turning to B2, the concentration giving a half-maximal response (EC50) in assay [1] was 2.67 ng/mL; in assay [3], 0.163 µg/mL; in [4], 0.059 µg/mL; in assay [5] it was 0.068 µg/mL; in assay [6] it was 0.057 µg/mL; in assay [14], 0.067 µg/mL. For the same molecule, the EC50 was determined as 0.114 µg/mL in assay [10] and 0.08 µg/mL in [11]. Moreover, the “Max MFI” value in assay [2] is 65000 MFI; in assay [7], 86100 MFI; in assay [9], 168000 MFI; in [12] it was 79300 MFI; in assay [13], 145000 MFI. The “Top (%)” value in assay [8] is 2.08.

B3: chimeric nanobody 3-D7 (Fc fusion)
VHH: QRQLVESGGGLVQPGGSLRLSCAASGFLLDYYVIGWFRQAPGKEREGVSCISGSDRSTYYADSVKGRFTISRDNAKNTVYLQMNSLKPEDTAVYFCAADPSPVTVQAMCLPRFPVPYWGQGTQVTVST
notes: Human-alpaca chimeric antibody (VHH on hIgG1 Fc); Only the VHH is tied to the tested molecule; 37-39 exist for 3-D7-FC1/FC2/FC3; also called original antibody 3-D7
B3: the EC50 was found to be 13.5 ng/mL in assay [1]; 0.227 µg/mL in [3]; 0.12 µg/mL in assay [4]; 0.106 µg/mL in [5]; 0.133 µg/mL in assay [6]; 0.116 µg/mL in assay [14]. Besides, the EC50 in [10] worked out at 0.234 µg/mL. Further, the “Max MFI” value is 58800 MFI in assay [2]; 80900 MFI in assay [7]; 155000 MFI in assay [9]; 69600 MFI in [12]; 135000 MFI in assay [13]. The “Top (%)” value in [8] was 1.79.

B4: chimeric nanobody 4-B02 (Fc fusion)
VHH: EVQLVESGGGLVQPGGSLRLSCAASGFPLDYYSIGWFRQAPGKEREGVSCIGSSDGSTYYADSVKGRFTISRDNAENTVWLQMNSLKPEDTAVYYCAALKYYYCSGHEAIYDYWGQGTQVTVSG
notes: as for B2
For the molecule B4, the EC50 came to 3.03 ng/mL in [1]; 0.112 µg/mL in [3]; 0.037 µg/mL in assay [4]; 0.055 µg/mL in assay [5]; 0.044 µg/mL in assay [6]; 0.061 µg/mL in assay [14]. For the same molecule, the EC50 in assay [10] came out at 0.105 µg/mL; in [11] it was 0.078 µg/mL. Also, the “Max MFI” value in assay [2] was found to be 61600 MFI; in assay [7], 82700 MFI; in assay [9], 170000 MFI; in assay [12] it was 69500 MFI; in [13], 136000 MFI. Besides, the “Top (%)” value in [8] is 2.

For the origin of these results see US20250382376A1 (FUDAN UNIVERSITY, published 2025).
